Patent publication US20210032315A1 (VIVORYON THERAPEUTICS N V, published 2021)
Positions count from the first letter of the chain named. Names and notes keep the numbering of the source. Like-named read-outs stand apart in the source and are kept apart here. Each block holds one binder with its values, some of them ahead of it.

How the values were obtained:
[1] = target: T1, Fibrils of Aβ (1-42) peptides (human); test: SPR, fibrils captured on the chip, antibody as analyte, single cycle kinetics
T1 construct: Fibrillar aggregate of Aβ 1-42, made at pH 8.7 and 37 °C and captured on the sensor chip (about 100 RU); also called Aβ (1-42) fibrils
Procedure: (§1) The obtained sensorgrams were evaluated using five consecutive concentrations (starting with the first injection showing binding) and the Single Cycle Kinetics model with a global fit of Rmax and baseline drift and local fits of the bulk effect of every injection.

[2] = target: T2, Oligomers of Aβ (1-42) peptides (human); test: SPR, oligomers captured on the chip, antibody as analyte, single cycle kinetics
T2 construct: Oligomeric Aβ 1-42, made by the ACUMEN protocol in Ham's F12 at 4 °C and captured on the sensor chip (about 300 RU); also called Aβ (1-42) oligomers
Procedure: Oligomers of Aβ (1-42) peptides were generated according to the ACUMEN protocol in Ham's F12 medium overnight at 4° C. and separated from aggregated Aβ by centrifugation. Afterwards the oligomers were aspirated in 20 μl, diluted in 60 μl running buffer and loaded onto a sensor chip by use of capture antibodies with a flow rate of 1 μl/min. Then, the system was washed overnight with 100 μl/min getting a stable baseline.
as §1

Aβ (1-18) = target: T3, Aβ (1-18) (human); test: SPR, antibody captured by anti-human antibody, peptide as analyte
T3 peptide: DAEFRHDSGYEVHHQKLV

Aβ (4-18) [3] = target: T4, Aβ (4-18) (human); test: SPR, antibody captured by anti-human antibody, peptide as analyte, steady-state model
T4 peptide: FRHDSGYEVHHQKLV

Aβ (4-18) [4] = target: T4, Aβ (4-18); test: as above
full length human CD16A = target: T5, full length human CD16A (human, UniProt P08637 17-254); test: FACS on CHO cells stably expressing the receptor, 7 concentrations
T5 construct: whole, on cells; also called Fc gamma receptor
Procedure: (§2) The binding was measured in a FACS based bioassay to Chinese Hamster Ovary (CHO) cells stably expressing full length human CD16A, CD32A, CD32B, or CD64. Both antibodies were incubated with each cell line at 7 different concentrations for one hour followed by washing. Receptor-bound H6 or H67 was detected with fluorochrome conjugated-anti-Fab′. Binding capacity was measured by FACS and the Kd and Bmax were calculated by non-linear regression.

full length human CD32A = target: T6, full length human CD32A (human, UniProt P12318 34-317); test: as above
T6 construct: whole, on cells; also called Fc gamma receptor
T6 sequence (looked up): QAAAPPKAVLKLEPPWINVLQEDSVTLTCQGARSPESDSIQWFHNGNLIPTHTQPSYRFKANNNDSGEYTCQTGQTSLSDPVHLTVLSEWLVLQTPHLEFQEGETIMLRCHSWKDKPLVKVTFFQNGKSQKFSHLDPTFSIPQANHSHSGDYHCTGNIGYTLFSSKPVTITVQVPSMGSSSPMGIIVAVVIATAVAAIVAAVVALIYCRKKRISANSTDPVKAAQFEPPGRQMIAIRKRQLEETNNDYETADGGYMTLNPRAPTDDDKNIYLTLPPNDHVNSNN
Procedure: as §2

full length human CD32B = target: T7, full length human CD32B (human, UniProt P31994 43-310); test: as above
T7 construct: whole, on cells; also called Fc gamma receptor
T7 sequence (looked up): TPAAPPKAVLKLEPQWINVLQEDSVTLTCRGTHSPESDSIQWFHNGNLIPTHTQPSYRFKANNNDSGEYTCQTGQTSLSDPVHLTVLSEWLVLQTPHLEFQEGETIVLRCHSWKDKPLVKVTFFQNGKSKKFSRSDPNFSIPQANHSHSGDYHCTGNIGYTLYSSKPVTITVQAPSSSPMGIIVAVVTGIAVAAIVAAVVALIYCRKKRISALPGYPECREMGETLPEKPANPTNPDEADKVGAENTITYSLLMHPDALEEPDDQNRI
Procedure: as §2

full length human CD64 = target: T8, full length human CD64 (human, UniProt P12314 16-374); test: as above
T8 construct: whole, on cells; also called Fc gamma receptor
Procedure: as §2

T2 sequence (peptide, as listed by the source): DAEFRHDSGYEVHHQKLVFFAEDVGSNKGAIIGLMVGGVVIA
T1 sequence (peptide, as listed by the source): as above
T8 sequence (P12314 16-374): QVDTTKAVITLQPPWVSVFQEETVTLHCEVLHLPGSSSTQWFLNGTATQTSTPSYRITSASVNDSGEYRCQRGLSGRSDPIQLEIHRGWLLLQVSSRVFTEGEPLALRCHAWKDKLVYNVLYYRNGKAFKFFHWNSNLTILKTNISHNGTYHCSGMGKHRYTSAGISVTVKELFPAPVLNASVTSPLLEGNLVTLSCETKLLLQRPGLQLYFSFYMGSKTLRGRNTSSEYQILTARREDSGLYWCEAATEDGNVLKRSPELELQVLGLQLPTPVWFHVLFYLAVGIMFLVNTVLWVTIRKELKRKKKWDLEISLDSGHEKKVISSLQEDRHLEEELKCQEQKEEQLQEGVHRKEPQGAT
T5 sequence (P08637 17-254): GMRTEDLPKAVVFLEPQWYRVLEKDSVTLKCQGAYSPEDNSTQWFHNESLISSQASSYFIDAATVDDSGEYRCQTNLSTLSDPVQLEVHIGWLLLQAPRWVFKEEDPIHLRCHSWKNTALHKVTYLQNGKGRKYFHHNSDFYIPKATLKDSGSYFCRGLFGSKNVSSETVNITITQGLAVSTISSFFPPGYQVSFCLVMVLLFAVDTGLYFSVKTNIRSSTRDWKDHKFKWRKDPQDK

Kd [1]: 0.0659 nM
koff [1]: 6.53e-05 s⁻¹
kon [1]: 990000 M⁻¹ s⁻¹
Kd [2]: 7.61 nM
koff [2]: 0.000142 s⁻¹
kon [2]: 18600 M⁻¹ s⁻¹
B1: parental antibody clone #6 disclosed in WO 2017/009459 (antibody, V domains shown)
VH: QVQLVQSGAEVKKSGASVKVSCKASGYSFTGHTMNWVRQAPGQGLEWMGLINPSNGVTRYNQKFQGRVTITRDTSTTTVHMELTSLTSEDTATYYCTREAKREWDETYWGQGTLVTVSS
VL: DVVMTQSPLSLPVTLGQPASISCKSSQSLLYSDGKTYLNWFQQRPGQSPRRLTYLVSKLDSGVPDRFSGSGSGTDFTLKISRVEAEDVGVYYCVQGTHFPFTFGGGTKVEIK
notes: also called parental clone #6 variant

Kd (Aβ (1-18)): > 10000 nM
Kd [1]: 1.67 nM
Kd [2]: 269 nM
Kd (Aβ (4-18) [3]): > 10000 nM
Kd (Aβ (4-18) [4]): 28300 nM
B2: humanized and de-immunized antibody clone #6 of the present invention (antibody, V domains shown)
VH: B1 VH with K12V, S14P, N55D
VL: B1 VL
notes: It was captured by a polyclonal anti-human antibody, so it has human constant regions

binding result (full length human CD16A): binds
binding result (full length human CD32A): binds
binding result (full length human CD32B): binds
binding result (full length human CD64): binds
B3: antibody comprising the wild-type heavy chain of SEQ ID NO: 19 (antibody, human IgG1, kappa)
heavy: not shown
light: DVVMTQSPLSLPVTLGQPASISCKSSQSLLYSDGKTYLNWFQQRPGQSPRRLTYLVSKLDSGVPDRFSGSGSGTDFTLKISRVEAEDVGVYYCVQGTHFPFTFGGGTKVEIKRTVAAPSVFIFPPSDEQLKSGTASVVCLLNNFYPREAKVQWKVDNALQSGNSQESVTEQDSKDSTYSLSSTLTLSKADYEKHKVYACEVTHQGLSSPVTKSFNRGEC
notes: also called antibody according to A)

binding result (full length human CD16A): binds
binding result (full length human CD32A): binds
binding result (full length human CD32B): binds
binding result (full length human CD64): binds
B4: K324A mutant variant (comprising the heavy chain of SEQ ID NO: 18) (antibody, human IgG1, kappa)
heavy: not shown
light: B3 light
notes: also called antibody according to B)
